Data as given in patent publication US20220002427A1 (ENGMAB SARL, published 2022).
Where “and” joins values, the source holds several entries; their conditions need not be identical. Identical values can stand only once.

Assays:
[1] = target: T1, human BCMA on cells (human, UniProt Q02223 1-184); assay: flow cytometry on H929 multiple myeloma cells, PE anti-human Fc F(ab')2 detection; estimated EC50
T1 construct: whole, on cells; also called huBCMA on HEK cells; HEK-huBCMA cells
T1 sequence (looked up): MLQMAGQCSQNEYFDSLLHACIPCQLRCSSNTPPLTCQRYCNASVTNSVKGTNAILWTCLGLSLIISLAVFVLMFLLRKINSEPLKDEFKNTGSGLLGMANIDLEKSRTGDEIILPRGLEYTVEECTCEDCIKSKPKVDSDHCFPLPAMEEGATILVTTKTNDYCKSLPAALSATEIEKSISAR
Method: (§1) Briefly, cultured cells are harvested, counted and cell viability was evaluated using ViCell. Viable cells are then adjusted to 2×10⁶ cells per ml in BSA-containing FACS Stain Buffer (BD Biosciences). 100 μl of this cell suspension were further aliquoted per well into a round-bottom 96-well plate and incubated with 30 μl of the anti-BCMA antibodies or corresponding IgG control for 30 min at 4° c. All Anti-BCMA/anti-CD3 TCB antibodies (and TCB controls) were titrated and analyzed in final concentration range between 1-300 nM. Cells were then centrifuged (5 min, 350×g), washed with 120 μl/well FACS Stain Buffer (BD Biosciences), resuspended and incubated for an additional 30 min at 4° C. with fluorochrome-conjugated PE-conjugated AffiniPure F(ab′)2 Fragment goat anti-human IgG Fc Fragment Specific (Jackson Immuno Research Lab; 109-116-170). Cells were then washed twice with Stain Buffer (BD Biosciences), fixed using 100 ul BD Fixation buffer per well (#BD Biosciences, 554655) at 4° C. for 20 min, resuspended in 120 μl FACS buffer and analyzed using BD FACS CantoII.

[2] = target: T1, human BCMA on cells; assay: flow cytometry on L363 multiple myeloma cells, PE anti-human Fc F(ab')2 detection; estimated EC50
Method: as §1

[3] = target: T1, human BCMA on cells; assay: cell-based or functional assay
[4] = target: T1, human BCMA on cells; assay: flow cytometry on RPMI-8226 multiple myeloma cells, PE anti-human Fc F(ab')2 detection; asterisk: extrapolated by Prism
Method: as §1

[5] = target: T1, human BCMA on cells; assay: cell-based or functional assay; remark: listed apart in the source
[6] = target: T1, human BCMA on cells; assay: cell-based or functional assay; remark: listed apart in the source
[7] = target: T1, human BCMA on cells; assay: cell-based or functional assay; remark: listed apart in the source
[8] = target: T1, human BCMA on cells; assay: cell-based or functional assay; remark: listed apart in the source
[9] = target: T1, human BCMA on cells; assay: cell-based or functional assay; remark: listed apart in the source
[10] = target: T1, human BCMA on cells; assay: flow cytometry on RPMI-8226 multiple myeloma cells, PE anti-human Fc F(ab')2 detection; estimated EC50
Method: as §1

B1: 83A10-TCBcv (bispecific antibody, human IgG1, kappa, L234A L235A)
heavy 1: not shown
heavy 2: not shown
light 1: not shown
light 2: EVQLLESGGGLVQPGGSLRLSCAASGFTFSTYAMNWVRQAPGKGLEWVSRIRSKYNNYATYYADSVKGRFTISRDDSKNTLYLQMNSLRAEDTAVYYCVRHGNFGNSYVSWFAYWGQGTLVTVSSASVAAPSVFIFPPSDEQLKSGTASVVCLLNNFYPREAKVQWKVDNALQSGNSQESVTEQDSKDSTYSLSSTLTLSKADYEKHKVYACEVTHQGLSSPVTKSFNRGEC
notes: also called anti-BCMA/anti-CD3 T cell bispecific antibody 83A10-TCBcv
For B1, the EC50 [1] was 12 nM and 1.73 µg/mL, the EC50 [2] was 17.4 nM and 2.51 µg/mL and the “EC50 of redirected T-cell killing of H929 cells (LDH release), Donor 1” value [3] was 0.0039 nM. For the same binder, the “EC50 of redirected T-cell killing of H929 cells (LDH release), Donor 3” value [3] was 0.0085 nM, the “EC50 of redirected T-cell killing of H929 cells (LDH release), Donor 4” value [3] was 0.005 nM and the “EC50 of redirected T-cell killing of H929 cells (LDH release), Donor 5” value [3] was 0.0043 nM. The “EC50 of redirected T-cell killing of H929 cells (LDH release), Donor 6” value [3] was 0.0015 nM, the EC50 [4] was > 300 nM and ~27200 µg/mL and the “Lysis of JJN-3 cells (%) at 0.1 pM TCB, Experiment 2” value [5] was 22.3%. The “Lysis of JJN-3 cells (%) at 1 pM TCB, Experiment 1” value [5] was 24.4%, the “Lysis of JJN-3 cells (%) at 1 pM TCB, Experiment 2” value [5] was -1.88% and the “Lysis of JJN-3 cells (%) at 10 pM TCB, Experiment 1” value [5] was 41.9%. The “Lysis of JJN-3 cells (%) at 10 pM TCB, Experiment 2” value [5] was 39.6%, the “Lysis of JJN-3 cells (%) at 100 pM TCB, Experiment 1” value [5] was 18.4% and the “Lysis of JJN-3 cells (%) at 100 pM TCB, Experiment 2” value [5] was 20.1%. The “Lysis of JJN-3 cells (%) at 1000 pM TCB, Experiment 1” value [5] was 26.7%, the “Lysis of JJN-3 cells (%) at 1000 pM TCB, Experiment 2” value [5] was 25.3% and the “Lysis of JJN-3 cells (%) at 10000 pM TCB, Experiment 1” value [5] was 70.3%. The “Lysis of JJN-3 cells (%) at 10000 pM TCB, Experiment 2” value [5] was 51.2%, the “EC50 of redirected T-cell killing of RPMI-8226 cells (LDH release), Donor 2” value [6] was 0.621 nM and the “EC50 of redirected T-cell killing of RPMI-8226 cells (LDH release), Donor 3” value [6] was 0.229 nM. For the same binder, the “EC50 of redirected T-cell killing of RPMI-8226 cells (LDH release), Donor 4” value [6] was 0.035 nM, the “EC50 of redirected T-cell killing of RPMI-8226 cells (LDH release), Donor 5” value [6] was 0.0649 nM and the “EC50 of Granzyme B secretion, PBMC plus RPMI-8226 cells (CBA)” value [7] was 0.34 nM. For the same binder, the “EC50 of IL-10 secretion, PBMC plus RPMI-8226 cells (CBA)” value [7] was 0.3 nM, the “EC50 of TNF-α secretion, PBMC plus RPMI-8226 cells (CBA)” value [7] was 0.52 nM and the “Annexin-V positive JJN-3 cells (%) at 0.1 pM TCB, Experiment 2” value [8] was 13.1%. For the same binder, the “Annexin-V positive JJN-3 cells (%) at 1 pM TCB, Experiment 1” value [8] was 11.4%, the “Annexin-V positive JJN-3 cells (%) at 1 pM TCB, Experiment 2” value [8] was 14.3% and the “Annexin-V positive JJN-3 cells (%) at 10 pM TCB, Experiment 1” value [8] was 11.1%. For the same binder, the “Annexin-V positive JJN-3 cells (%) at 10 pM TCB, Experiment 2” value [8] was 15.9%, the “Annexin-V positive JJN-3 cells (%) at 100 pM TCB, Experiment 1” value [8] was 9.12% and the “Annexin-V positive JJN-3 cells (%) at 100 pM TCB, Experiment 2” value [8] was 16.5%. The “Annexin-V positive JJN-3 cells (%) at 1000 pM TCB, Experiment 1” value [8] was 10.2%, the “Annexin-V positive JJN-3 cells (%) at 1000 pM TCB, Experiment 2” value [8] was 17.5% and the “Annexin-V positive JJN-3 cells (%) at 10000 pM TCB, Experiment 1” value [8] was 16.8%. For the same binder, the “Annexin-V positive JJN-3 cells (%) at 10000 pM TCB, Experiment 2” value [8] was 22.9%, the “EC50 of redirected T-cell killing of L363 cells (LDH release), Donor 1” value [9] was 0.0168 nM and the “EC50 of redirected T-cell killing of L363 cells (LDH release), Donor 2” value [9] was 0.0478 nM. The “EC50 of redirected T-cell killing of L363 cells (LDH release), Donor 3” value [9] was 0.0284 nM, the “EC50 of redirected T-cell killing of L363 cells (LDH release), Donor 4” value [9] was 0.0126 nM and the “EC50 of redirected T-cell killing of L363 cells (LDH release), Donor 5” value [9] was 0.039 nM.

B2: 42-TCBcv (bispecific antibody, human IgG1, kappa, L234A L235A)
heavy 1: not shown
heavy 2: EVQLLESGGGLVQPGGSLRLSCAASGFTFSDNAMGWVRQAPGKGLEWVSAISGPGSSTYYADSVKGRFTISRDNSKNTLYLQMNSLRAEDTAVYYCAKVLGWFDYWGQGTLVTVSSASTKGPSVFPLAPSSKSTSGGTAALGCLVEDYFPEPVTVSWNSGALTSGVHTFPAVLQSSGLYSLSSVVTVPSSSLGTQTYICNVNHKPSNTKVDEKVEPKSCDKTHTCPPCPAPEAAGGPSVFLFPPKPKDTLMISRTPEVTCVVVDVSHEDPEVKFNWYVDGVEVHNAKTKPREEQYNSTYRVVSVLTVLHQDWLNGKEYKCKVSNKALGAPIEKTISKAKGQPREPQVCTLPPSRDELTKNQVSLSCAVKGFYPSDIAVEWESNGQPENNYKTTPPVLDSDGSFFLVSKLTVDKSRWQQGNVFSCSVMHEALHNHYTQKSLSLSPGK
light 1: EIVLTQSPGTLSLSPGERATLSCRASQSVSDEYLSWYQQKPGQAPRLLIHSASTRATGIPDRFSGSGSGTDFTLAISRLEPEDFAVYYCQQYGYPPDFTFGQGTKVEIKRTVAAPSVFIFPPSDRKLKSGTASVVCLLNNFYPREAKVQWKVDNALQSGNSQESVTEQDSKDSTYSLSSTLTLSKADYEKHKVYACEVTHQGLSSPVTKSFNRGEC
light 2: EVQLLESGGGLVQPGGSLRLSCAASGFTFSTYAMNWVRQAPGKGLEWVSRIRSKYNNYATYYADSVKGRFTISRDDSKNTLYLQMNSLRAEDTAVYYCVRHGNFGNSYVSWFAYWGQGTLVTVSSASVAAPSVFIFPPSDEQLKSGTASVVCLLNNFYPREAKVQWKVDNALQSGNSQESVTEQDSKDSTYSLSSTLTLSKADYEKHKVYACEVTHQGLSSPVTKSFNRGEC
notes: also called 42-TCVcv; anti-BCMA/anti-CD3 T cell bispecific antibody of Mab42
For B2, the EC50 [1] was 13.6 nM and 1.96 µg/mL, the EC50 [2] was 3.8 nM and 0.553 µg/mL and the “EC50 of redirected T-cell killing of H929 cells (LDH release), Donor 1” value [3] was 0.0097 nM. For the same binder, the “EC50 of redirected T-cell killing of H929 cells (LDH release), Donor 3” value [3] was 0.0117 nM, the “EC50 of redirected T-cell killing of H929 cells (LDH release), Donor 4” value [3] was 0.0072 nM and the “EC50 of redirected T-cell killing of H929 cells (LDH release), Donor 5” value [3] was 0.0068 nM. For the same binder, the “Lysis of JJN-3 cells (%) at 0.1 pM TCB, Experiment 2” value [5] was 17.6%, the “Lysis of JJN-3 cells (%) at 1 pM TCB, Experiment 1” value [5] was 40.3% and the “Lysis of JJN-3 cells (%) at 1 pM TCB, Experiment 2” value [5] was 34.9%. The “Lysis of JJN-3 cells (%) at 10 pM TCB, Experiment 1” value [5] was 39%, the “Lysis of JJN-3 cells (%) at 10 pM TCB, Experiment 2” value [5] was 39.4% and the “Lysis of JJN-3 cells (%) at 100 pM TCB, Experiment 1” value [5] was 41.9%. The “Lysis of JJN-3 cells (%) at 100 pM TCB, Experiment 2” value [5] was 55.3%, the “Lysis of JJN-3 cells (%) at 1000 pM TCB, Experiment 1” value [5] was 84% and the “Lysis of JJN-3 cells (%) at 1000 pM TCB, Experiment 2” value [5] was 81.1%. For the same binder, the “Lysis of JJN-3 cells (%) at 10000 pM TCB, Experiment 1” value [5] was 92.9%, the “Lysis of JJN-3 cells (%) at 10000 pM TCB, Experiment 2” value [5] was 90.4% and the “EC50 of redirected T-cell killing of RPMI-8226 cells (LDH release), Donor 2” value [6] was 0.383 nM. The “EC50 of redirected T-cell killing of RPMI-8226 cells (LDH release), Donor 3” value [6] was 0.0187 nM, the “EC50 of redirected T-cell killing of RPMI-8226 cells (LDH release), Donor 4” value [6] was 0.0035 nM and the “EC50 of redirected T-cell killing of RPMI-8226 cells (LDH release), Donor 5” value [6] was 0.0015 nM. For the same binder, the EC50 [10] was 13.2 nM and 1.91 µg/mL, the “Annexin-V positive JJN-3 cells (%) at 0.1 pM TCB, Experiment 2” value [8] was 12.8% and the “Annexin-V positive JJN-3 cells (%) at 1 pM TCB, Experiment 1” value [8] was 11.9%. For the same binder, the “Annexin-V positive JJN-3 cells (%) at 1 pM TCB, Experiment 2” value [8] was 13.5%, the “Annexin-V positive JJN-3 cells (%) at 10 pM TCB, Experiment 1” value [8] was 12.3% and the “Annexin-V positive JJN-3 cells (%) at 10 pM TCB, Experiment 2” value [8] was 13.6%. For the same binder, the “Annexin-V positive JJN-3 cells (%) at 100 pM TCB, Experiment 1” value [8] was 8.62%, the “Annexin-V positive JJN-3 cells (%) at 100 pM TCB, Experiment 2” value [8] was 14.4% and the “Annexin-V positive JJN-3 cells (%) at 1000 pM TCB, Experiment 1” value [8] was 16.8%. For the same binder, the “Annexin-V positive JJN-3 cells (%) at 1000 pM TCB, Experiment 2” value [8] was 21.7%, the “Annexin-V positive JJN-3 cells (%) at 10000 pM TCB, Experiment 1” value [8] was 24.8% and the “Annexin-V positive JJN-3 cells (%) at 10000 pM TCB, Experiment 2” value [8] was 26.9%. The “EC50 of redirected T-cell killing of L363 cells (LDH release), Donor 1” value [9] was 0.0155 nM, the “EC50 of redirected T-cell killing of L363 cells (LDH release), Donor 2” value [9] was 0.0167 nM and the “EC50 of redirected T-cell killing of L363 cells (LDH release), Donor 3” value [9] was 0.0052 nM. For the same binder, the “EC50 of redirected T-cell killing of L363 cells (LDH release), Donor 4” value [9] was 0.0022 nM and the “EC50 of redirected T-cell killing of L363 cells (LDH release), Donor 5” value [9] was 0.0106 nM.
